This data set has as its system Escherichia coli TOP10. Description: shrunken log2 fold change of peptide-encoding DNA abundance (4.5 h post-induction vs induction); higher = less antimicrobial activity (less host growth inhibition). The settings on record: time post-induction: 4.5 h; library: site-saturation at positions 5, 18, 19, 20.
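Note: peptides expressed intracellularly from a pBAD plasmid library in pooled LB shake-flask culture, induced with 0.3% L-arabinose, DNA abundance read by NGS, three biological replicates, DESeq2 with apeglm shrinkage.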

As to RRIRKRPPRLPRPRPRPFVMPRP, the “shrunken log2 fold change” value was determined as 0.261.
Regarding RRIRHRPPRLPRPRPRPEQHPRP, the “shrunken log2 fold change” value worked out at 1.73.
On to RRIRYRPPRLPRPRPRPILQPRP, for which the “shrunken log2 fold change” value came to 0.049.
Next, RRIRDRPPRLPRPRPRPYPCPRP: -0.112.
With RRIRDRPPRLPRPRPRPEYLPRP, the “shrunken log2 fold change” value was 0.0986.
As for RRIRNRPPRLPRPRPRPCAWPRP, the “shrunken log2 fold change” value was -0.147.
In the case of RRIRIRPPRLPRPRPRPAITPRP, the “shrunken log2 fold change” value was -0.706.
As to RRIRCRPPRLPRPRPRPHSAPRP, the “shrunken log2 fold change” value is 0.0702.
Turning to RRIRGRPPRLPRPRPRPFGPPRP, the “shrunken log2 fold change” value was found to be 0.355.
For the sequence RRIRHRPPRLPRPRPRPSKQPRP, the “shrunken log2 fold change” value is -0.166.
Then RRIRRRPPRLPRPRPRPILDPRP, with 0.0526; and RRIRDRPPRLPRPRPRPWPYPRP, with -0.0943.
In the case of RRIRQRPPRLPRPRPRPAGNPRP, the “shrunken log2 fold change” value was -0.0449.
Turning to RRIRSRPPRLPRPRPRPQSRPRP, the “shrunken log2 fold change” value was determined as 0.0912.
Next, RRIRFRPPRLPRPRPRPHYGPRP: 0.0398; RRIRNRPPRLPRPRPRPSHDPRP: -0.516.
RRIRQRPPRLPRPRPRPKNHPRP: the “shrunken log2 fold change” value is -0.23.
In the case of RRIRRRPPRLPRPRPRPYCEPRP, the “shrunken log2 fold change” value was -0.102.
RRIRRRPPRLPRPRPRPKWGPRP: the “shrunken log2 fold change” value worked out at 1.2.
Next, RRIRVRPPRLPRPRPRPSHWPRP: 0.182; RRIRTRPPRLPRPRPRPCWGPRP: -0.234.
RRIRYRPPRLPRPRPRPIFSPRP: the “shrunken log2 fold change” value was -1.43.
For RRIRIRPPRLPRPRPRPRVRPRP, the “shrunken log2 fold change” value turned out to be 0.112.
As for RRIRGRPPRLPRPRPRPEKGPRP, the “shrunken log2 fold change” value amounted to 0.136.
For RRIRMRPPRLPRPRPRPAAQPRP, the “shrunken log2 fold change” value worked out at 1.12.
With RRIRDRPPRLPRPRPRPFMNPRP, the “shrunken log2 fold change” value was -0.117.
Take RRIRPRPPRLPRPRPRPVVNPRP: the “shrunken log2 fold change” value was -0.229.
Then RRIRTRPPRLPRPRPRPAAKPRP, with 0.217; and RRIRYRPPRLPRPRPRPQYIPRP, with 0.0111.
In the case of RRIRYRPPRLPRPRPRPKETPRP, the “shrunken log2 fold change” value was -0.00674.
As to RRIRFRPPRLPRPRPRPNDSPRP, the “shrunken log2 fold change” value was -0.0675.
As to RRIRVRPPRLPRPRPRPMISPRP, the “shrunken log2 fold change” value is -0.237.
For RRIRSRPPRLPRPRPRPRVVPRP, the “shrunken log2 fold change” value was 0.245.
With RRIRNRPPRLPRPRPRPWAVPRP, the “shrunken log2 fold change” value worked out at 0.0374.
Consider RRIRTRPPRLPRPRPRPGRIPRP, for which the “shrunken log2 fold change” value is -0.171.
For RRIRARPPRLPRPRPRPLMSPRP, the “shrunken log2 fold change” value is 0.302.
Turning to RRIRNRPPRLPRPRPRPDIDPRP, the “shrunken log2 fold change” value was -0.0391.
For RRIRARPPRLPRPRPRPWQIPRP, the “shrunken log2 fold change” value was -0.0641.
Turning to RRIRWRPPRLPRPRPRPYIRPRP, the “shrunken log2 fold change” value was -0.359.
With RRIRKRPPRLPRPRPRPKTHPRP, the “shrunken log2 fold change” value amounted to 0.4.
Turning to RRIRSRPPRLPRPRPRPWRAPRP, the “shrunken log2 fold change” value was 0.183.
In the case of RRIRSRPPRLPRPRPRPALMPRP, the “shrunken log2 fold change” value was 0.323.
Take RRIRLRPPRLPRPRPRPYMHPRP: the “shrunken log2 fold change” value was -0.408.
With RRIRVRPPRLPRPRPRPPCNPRP, the “shrunken log2 fold change” value is -0.356.
Regarding RRIRARPPRLPRPRPRPHSPPRP, the “shrunken log2 fold change” value turned out to be 0.122.
As for RRIRDRPPRLPRPRPRPHAWPRP, the “shrunken log2 fold change” value was 0.1.
RRIRPRPPRLPRPRPRPPKYPRP: the “shrunken log2 fold change” value is -0.148.
As for RRIRHRPPRLPRPRPRPTFIPRP, the “shrunken log2 fold change” value was -0.114.
In the case of RRIRWRPPRLPRPRPRPYGPPRP, the “shrunken log2 fold change” value was -0.0264.
Turning to RRIRGRPPRLPRPRPRPCHVPRP, the “shrunken log2 fold change” value was -0.172.
On to RRIRVRPPRLPRPRPRPPPSPRP, for which the “shrunken log2 fold change” value turned out to be 0.897.
Take RRIRHRPPRLPRPRPRPIRFPRP: the “shrunken log2 fold change” value was -0.00142.
Next, RRIRPRPPRLPRPRPRPECFPRP: 0.122.
Take RRIRARPPRLPRPRPRPMGMPRP: the “shrunken log2 fold change” value turned out to be 0.211.
As to RRIRQRPPRLPRPRPRPNHFPRP, the “shrunken log2 fold change” value came to 0.189.
Regarding RRIRGRPPRLPRPRPRPLPHPRP, the “shrunken log2 fold change” value was found to be 0.638.
RRIRNRPPRLPRPRPRPTPNPRP: the “shrunken log2 fold change” value is 0.185.
Take RRIRHRPPRLPRPRPRPFTGPRP: the “shrunken log2 fold change” value is -0.171.
On to RRIRTRPPRLPRPRPRPRMWPRP, for which the “shrunken log2 fold change” value was 0.227.
Next, RRIRQRPPRLPRPRPRPSYHPRP: -0.178.
Turning to RRIRERPPRLPRPRPRPYPHPRP, the “shrunken log2 fold change” value was -0.0727.
Next, RRIRLRPPRLPRPRPRPAMKPRP: -0.0543; RRIRWRPPRLPRPRPRPKFLPRP: -0.0144; RRIRMRPPRLPRPRPRPETIPRP: 0.0625.
Consider RRIRWRPPRLPRPRPRPTHAPRP, for which the “shrunken log2 fold change” value stood at 0.787.
Take RRIRPRPPRLPRPRPRPCSGPRP: the “shrunken log2 fold change” value was -0.0356.
Turning to RRIRMRPPRLPRPRPRPSHEPRP, the “shrunken log2 fold change” value worked out at 0.267.
Next, RRIRKRPPRLPRPRPRPRLLPRP: 0.517.
Take RRIRLRPPRLPRPRPRPYDLPRP: the “shrunken log2 fold change” value is -0.0724.
Then RRIRTRPPRLPRPRPRPDNPPRP, with -0.371.
Turning to RRIRERPPRLPRPRPRPPLIPRP, the “shrunken log2 fold change” value is -0.435.
Next, RRIRNRPPRLPRPRPRPKNPPRP: 0.0494.
On to RRIRFRPPRLPRPRPRPAHFPRP, for which the “shrunken log2 fold change” value was 0.0115.
Then RRIRTRPPRLPRPRPRPVEPPRP, with 0.00744; and RRIRSRPPRLPRPRPRPHVFPRP, with 2.95; and RRIRARPPRLPRPRPRPYESPRP, with -0.103.
Take RRIRFRPPRLPRPRPRPDLHPRP: the “shrunken log2 fold change” value is -0.274.
For the sequence RRIRMRPPRLPRPRPRPGHSPRP, the “shrunken log2 fold change” value came to 0.182.
Regarding RRIRSRPPRLPRPRPRPLFIPRP, the “shrunken log2 fold change” value was -0.74.
On to RRIRTRPPRLPRPRPRPFMIPRP, for which the “shrunken log2 fold change” value is -0.0265.
For RRIRERPPRLPRPRPRPCAEPRP, the “shrunken log2 fold change” value is -0.0868.
In the case of RRIRDRPPRLPRPRPRPIKFPRP, the “shrunken log2 fold change” value is -0.236.
As to RRIRNRPPRLPRPRPRPPRWPRP, the “shrunken log2 fold change” value was determined as 0.147.
For the sequence RRIRQRPPRLPRPRPRPDENPRP, the “shrunken log2 fold change” value came to 0.106.
Then RRIRSRPPRLPRPRPRPIQPPRP, with 0.117; and RRIRKRPPRLPRPRPRPFYKPRP, with -0.456; and RRIRERPPRLPRPRPRPGYWPRP, with -0.0572.
With RRIRNRPPRLPRPRPRPSIEPRP, the “shrunken log2 fold change” value was -0.214.
RRIRGRPPRLPRPRPRPRNLPRP: the “shrunken log2 fold change” value was -0.0805.
With RRIRKRPPRLPRPRPRPYKQPRP, the “shrunken log2 fold change” value was -0.0754.
In the case of RRIRMRPPRLPRPRPRPCFSPRP, the “shrunken log2 fold change” value was -0.141.
Then RRIRARPPRLPRPRPRPMRYPRP, with -0.179.
RRIRKRPPRLPRPRPRPVQTPRP: the “shrunken log2 fold change” value worked out at 0.914.
Then RRIRQRPPRLPRPRPRPMITPRP, with -0.166; and RRIRERPPRLPRPRPRPMFFPRP, with -0.0867; and RRIRYRPPRLPRPRPRPPSQPRP, with 0.0859.
Turning to RRIRGRPPRLPRPRPRPFEAPRP, the “shrunken log2 fold change” value turned out to be 0.727.
Turning to RRIRARPPRLPRPRPRPSYNPRP, the “shrunken log2 fold change” value was -0.428.
As to RRIRIRPPRLPRPRPRPLQLPRP, the “shrunken log2 fold change” value was -0.573.
RRIRSRPPRLPRPRPRPGGYPRP: the “shrunken log2 fold change” value amounted to 2.83.
Next, RRIRTRPPRLPRPRPRPYVNPRP: -0.189; RRIRHRPPRLPRPRPRPIKPPRP: -0.236.
In the case of RRIRERPPRLPRPRPRPIMYPRP, the “shrunken log2 fold change” value is -1.08.
For the sequence RRIRPRPPRLPRPRPRPVYLPRP, the “shrunken log2 fold change” value was -0.6.
For RRIRNRPPRLPRPRPRPIFSPRP, the “shrunken log2 fold change” value was determined as 0.0636.
Turning to RRIRCRPPRLPRPRPRPSKNPRP, the “shrunken log2 fold change” value was -0.382.
Turning to RRIRDRPPRLPRPRPRPAHSPRP, the “shrunken log2 fold change” value is -0.143.
Next, RRIRQRPPRLPRPRPRPWLCPRP: -0.0571.
RRIRRRPPRLPRPRPRPLSWPRP: the “shrunken log2 fold change” value was determined as 0.361.
In the case of RRIRHRPPRLPRPRPRPLLCPRP, the “shrunken log2 fold change” value was -0.223.
As for RRIRHRPPRLPRPRPRPDGFPRP, the “shrunken log2 fold change” value was -0.015.
On to RRIRVRPPRLPRPRPRPDQEPRP, for which the “shrunken log2 fold change” value was -0.00136.
Turning to RRIRPRPPRLPRPRPRPEYVPRP, the “shrunken log2 fold change” value was -0.0441.
Next, RRIRFRPPRLPRPRPRPCPFPRP: -0.988; RRIRERPPRLPRPRPRPMKMPRP: 0.0259.
Consider RRIRPRPPRLPRPRPRPLQLPRP, for which the “shrunken log2 fold change” value was -0.0598.
For RRIRTRPPRLPRPRPRPAEYPRP, the “shrunken log2 fold change” value is -0.162.
Turning to RRIRSRPPRLPRPRPRPCQPPRP, the “shrunken log2 fold change” value amounted to 0.0956.
Take RRIRIRPPRLPRPRPRPCRWPRP: the “shrunken log2 fold change” value amounted to 0.0527.
RRIRCRPPRLPRPRPRPCRCPRP: the “shrunken log2 fold change” value is -0.389.
Then RRIRLRPPRLPRPRPRPPDTPRP, with 0.257; and RRIRFRPPRLPRPRPRPDNEPRP, with -0.0688.
Consider RRIRMRPPRLPRPRPRPKRKPRP, for which the “shrunken log2 fold change” value was found to be 2.32.
Next, RRIRCRPPRLPRPRPRPFFMPRP: -0.201; RRIRERPPRLPRPRPRPMHAPRP: 0.262.

The values are drawn from the supplement of paper PMC9112550, “Optimization of the antimicrobial peptide Bac7 by deep mutational scanning” (BMC Biology, 2022).
